Laboratory results as given in patent US20210277147A1 (SINO SWED TONGKANG BIO TECH SHENZHEN, published 2021).

Key:
[1] = molecular target: T1, recombinant human thymidine kinase 1 (hTK1) protein (human, UniProt P04183 1-234, limits assumed); assay: indirect ELISA on coated hTK1, anti-full-length IgY biotin detection
T1 construct: ELISA coating antigen at 0.5 ug/ml, 100 ul per well (50 ng/well); also called recombinant hTK1 antigen
T1 sequence (looked up): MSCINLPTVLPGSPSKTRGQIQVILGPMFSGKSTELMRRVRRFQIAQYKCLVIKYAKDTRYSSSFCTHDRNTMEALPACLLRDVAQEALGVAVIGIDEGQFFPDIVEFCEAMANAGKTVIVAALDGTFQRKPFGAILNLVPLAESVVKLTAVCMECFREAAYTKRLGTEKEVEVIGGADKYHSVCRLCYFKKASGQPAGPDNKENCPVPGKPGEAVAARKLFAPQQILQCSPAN
Description: (§1) The recombinant IgY scFv antibody contains not only the hypervariable region that binds to hTK1, but also the highly conserved framework region (FR). In this embodiment, the HA 9-peptide tag of human influenza hemagglutinin was added. Therefore, when detecting recombinant single-chain antibodies by indirect ELISA, biotin-labeled anti-full-length IgY secondary antibody and horseradish peroxidase-labeled anti-human influenza hemagglutinin HA 9-peptide monoclonal antibodies were used as labeled antibodies, to detect recombinant anti-hTK1 single-chain antibody expressed in CHO cells. The supernatant of the transfected cells was collected and the expression level of recombinant scFv antibody was detected by ELISA experiment. The specific method is as follows:
(§2) The OD value of the CHO cell supernatant transfected with the scFv antibody gene is 6.6 times that of the CHO cell supernatant not transfected, and the ratio of the recombinant hTK1 antigen to the negative antigen control is 6.9.

[2] = molecular target: T1, recombinant human thymidine kinase 1 …; assay: indirect ELISA on coated hTK1, HRP-labeled anti-HA monoclonal antibody detection
Description: as §1, §2

[3] = molecular target: T1, recombinant human thymidine kinase 1 …; assay: indirect ELISA, hTK1-coated wells against coating-solution wells, anti-full-length IgY biotin detection
Description: as §1, §2

[4] = molecular target: T1, recombinant human thymidine kinase 1 …; assay: indirect ELISA, hTK1-coated wells against coating-solution wells, HRP-labeled anti-HA monoclonal antibody detection
Description: as §1, §2

OD ratio to the CHO cell supernatant not transfected [1]: 6.6 fold
OD ratio to the untransfected CHO cell supernatant [2]: 2.6 fold
ratio of the recombinant hTK1 antigen to the negative antigen control [3]: 6.9 ratio
ratio of the recombinant hTK1 antigen to the negative antigen control [4]: 0.287 ratio
B1: recombinant anti-hTK1 chicken IgY single-chain variable fragment (scFv) antibody expressed in CHO cells (scFv)
scFv: MAAVTLDESGGGLQTPGGALSLVCKGSGFTFSSDAMGWMRQAPGKGLEFVARINSAGSYTDYGSAVDGRATISRDNGQSTVRLQLNNLRAEDTSTYFCAKSPGGFSCAYGLCWDAAGSIDAWGHGTEVIVSSGGGSGGGGSGGGGSGGGSALTQPSSVSANLGGTVKITCSGGANYYGWFQQKTPGSAPVSLIYESTKRPSNIPSRFSGSKSGSTGTLTITGVRADDEAVYYCGTYDSSTHTSIFGAGTTLYPYDVPDYA
notes: Tested as unpurified supernatant of transiently transfected CHO cells; also called recombinant IgY scFv antibody; recombinant anti-hTK1 single-chain antibody
